Test results published in US20210032347A1 (JIANGSU HANSOH PHARMACEUTICAL GROUP, published 2021).

T1: Human B7-H4 with HisFlag tag (huB7-H4-his) (human, UniProt Q7Z7D3 25-258)
T1 construct: also called HuB7-H4 His protein; huB7-H4-HF
T1 sequence: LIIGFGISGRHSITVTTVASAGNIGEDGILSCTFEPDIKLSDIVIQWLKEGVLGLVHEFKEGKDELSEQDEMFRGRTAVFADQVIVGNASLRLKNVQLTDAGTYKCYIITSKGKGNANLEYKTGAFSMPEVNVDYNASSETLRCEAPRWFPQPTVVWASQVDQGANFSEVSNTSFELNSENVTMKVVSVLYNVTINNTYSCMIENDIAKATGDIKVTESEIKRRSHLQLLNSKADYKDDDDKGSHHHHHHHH


Experiments:
[1] = target: T1, Human B7-H4 with HisFlag tag …; test: SPR Biacore T200, antibody coupled to CM5 chip, series of huB7-H4-his concentrations, 1:1 model
Protocol: (§1) b). A series of concentrations of human huB7-H4-his protein diluted by the same buffer were respectively loaded at the flow rate of 10 μL/min and the chip was regenerated with the regeneration reagent provided in the kit. Antigen-antibody binding kinetics were recorded for 3 minutes and dissociation kinetics were recorded for 10 minutes. The resulting data were analyzed by GE's BIAevaluation Software using 1:1 (Langmuir) binding model.

[2] = target: T1, Human B7-H4 with HisFlag tag …; test: indirect ELISA, plate coated with HuB7-H4 His
Protocol: The plate was washed with PBST (PBS comprising 0.05% Tween-20, pH 7.4) four times, and then 150 μl/well of 3% bovine serum albumin (BSA) blocking solution diluted in PBST was added, and incubated at room temperature for 1 hour for blocking. After the blocking was finished, the blocking solution was discarded and the plate was washed 4 times with PBST buffer.
The antibodies to be tested were diluted with PBST comprising 3% BSA at a gradient of 10-fold dilution, starting from 1 μM with a total of 10 doses. The dilutions were added into the plate at 100 μl/well, and incubated at room temperature for 1 hour. After the incubation was finished, the plate was washed 4 times with PBST, 100 μl/well of HRP-labeled goat anti-human secondary antibody (Abeam, cat #ab97225) diluted in PBST comprising 3% BSA was added and incubated at room temperature for 1 hour. The plate was washed 4 times with PBST, 100 μl/well TMB chromogenic substrate (Cell Signaling Technology, cat #7004S) was added and incubated at room temperature in darkness for 1 minute, and 100 μl/well of Stop Solution (Cell Signaling Technology, cat #7002S) was added to terminate the reaction. The absorbance was read at 450 nm using a microplate reader (BioTek, model Synergy H1), and the data was analyzed.

[3] = target: T1, Human B7-H4 with HisFlag tag …; test: SPR Biacore T200, antibody coupled to CM5 chip, 50 nM huB7-H4-his in flow, 1:1 model
Protocol: as §1, with “a). 50 nM human” for “b). A series of concentrations of human”, “protein (Sino Biological #10738-H08H)” for “protein”, “buffer was” for “buffer were respectively”, “at a” for “at the”, “10 μL/min,” for “10 μL/min”

Binder | Kd [1] | koff [1] | kon [1] | EC50 [2] | koff [3]
chimeric antibody M1 (antibody, V domains shown, also called ch-M1) VH: EIQLQQSGPELVMPGASVKVSCTASGYPFTTYNMYWVKQSHGKSLEWIAYIDPYNGGTSYNQKFKGKATLTVDKSSSTAYMHLNSLTSEDSAVYYCARSGFYDGYYAWYFDVWGAGTTVTVSS VL: DVVMTQTPLSLPVSLGDQASISCRSSQSLVHSGGNTYLHWYLQKPGQSPKLLIYKVSNRFSGVPDRFSGSGSGTDFTLKISRVEAEDLGVYFCSQSTHVPLTFGAGTKLELK | 0.14 nM | 9.41e-05 s⁻¹ | 674000 M⁻¹ s⁻¹ | 0.063 nM | 
chimeric antibody 2A10 (antibody, human IgG1, V domains shown) VH: EVQLVESGGGFVKPGGSLKLSCAASGFTFSTFGMSWVRQTPDKRLEWVAGISPGGSYTYYPDTVKGRFTISRDNARNTLYLQMSSLRSEDSAMYYCTRGRSVWGTGTTVTVSS VL: DILMTQSPSSMSVSLGDTVSITCHASQDISSNIGWLQQKPGKSFKGLIYHGTTLEDGIPSRFSGSGSGADYSLTISSLESEDFADYYCVQSAQFPWTFGGGTKLEIK |  |  |  | 0.071 nM | 
chimeric antibody 2F4 (antibody, human IgG1, V domains shown, also called ch-2F4) VH: EVQLVESGGGLVKPGGSLKLSCAASGLTFSRYAMSWVRQTPEKRLEWVAGISSGGSYTYYSDTVKGRFTISRDNVRNTLYLQMSSLRSEDTAMYYCGREYGRDYWGQGTSVTVSS VL: DILMTQSPSSMSVSLGDTVSITCHASQGINSNIGWLQQKPGKSFKGLIYHGTNLEDGVPSRFSGSGSGTDYSLTISSLESEDFADYYCVQYAQFPRTFGGGTTLEIK | 2.5 nM | 0.00259 s⁻¹ | 1.04e+06 M⁻¹ s⁻¹ | 0.056 nM | 
chimeric antibody 2F7 (antibody, human IgG1, V domains shown, also called ch-2F7) VH: EVQLVESGGGLVQPGGSLKLSCAASGFTFSNYYMSWVRQTPEKRLEWVAYVSSGGGSTYYSDSVKGRFTISRDNAKNTLYLQMSSLKPEDTAMYYCTRESYSQGNYFDYWGQGTTLTVSS VL: DIVMTQSPATLSVTPGDRVSLSCRASQSISDYLHWYQQKSHESPRLLIKFASQSISGIPSRFSGSGSGSDFTLSINSVEPEDVGVYYCQNGHSFSLTFGAGTKLELK | 68.8 nM | 0.00304 s⁻¹ | 44200 M⁻¹ s⁻¹ | 0.17 nM | 
chimeric antibody 2F8 (antibody, human IgG1, V domains shown, also called ch-2F8) VH: QVQLQQPGSVLVRPGASVKLSCKASGYTFTNSWMNWAKLRPGQGLEWIGGIYPNSGNIEYNEKFKGKATLTVDTSSSTAYMDLTSLTSEDSAVYYCARDSRFSYWGQGTLVTVSA VL: DIVMTQSHKFMSTSVGDRVSITCKASQDVRTAVAWYQQKPGQSPKLLISSTSYRYTGVPDRFTGSGSGTDFTFIISSVQAEDLAVYYCQQHYSTPLTFGAGTKLELK | 0.119 nM | 0.000114 s⁻¹ | 1.13e+06 M⁻¹ s⁻¹ | 0.067 nM | 
chimeric antibody 2G6 (antibody, human IgG1, V domains shown) VH: EVQLVESGGGLVKPGGSLKLSCAASGFTFSRYGMSWVRQTPEKRLEWVAGINGGGSYTYYLDTVKGRFTISRDNSRNTLYLQMSSLRSEDTAMYYCVSQGSNYYFDYWGQGTTLTVSS VL: DIRMTQSPSSMSVSLGDTVSITCHASQGISSNIGWLQQKPGKSFKALIYHGTNLEDGVPSRFSGSGSGADYSLTISSLESEDFADYYCVQYAQFPYTFGGGTKLEIK |  |  |  | 0.081 nM | 
chimeric antibody 1C9 (antibody, human IgG1, V domains shown) VH: QVQLQQPGSVLVRPGASVKLSCKASGDTFTTYWMNWVKQRPGQGLEWIGGIYLNSGSSEYNEKFKGKATLSVDTSSSTAYMDLSSLTSEDSAVYYCARDSRFSYWGQGTLVTVSA VL: DIVMTQSHKFLSTSVGDRVSITCKASQDVSTAVAWYQQKPGQSPELLISSASYRYTGVPDRFTGSGSGTDFTFTISSVQAEDLAVYYCQQHYNTPLTFGAGTQLELK |  |  |  | 0.068 nM | 
murine mAb 2F7 (antibody, V domains shown, Murine antibody from hybridoma) VH: EVQLVESGGGLVQPGGSLKLSCAASGFTFSNYYMSWVRQTPEKRLEWVAYVSSGGGSTYYSDSVKGRFTISRDNAKNTLYLQMSSLKPEDTAMYYCTRESYSQGNYFDYWGQGTTLTVSS VL: DIVMTQSPATLSVTPGDRVSLSCRASQSISDYLHWYQQKSHESPRLLIKFASQSISGIPSRFSGSGSGSDFTLSINSVEPEDVGVYYCQNGHSFSLTFGAGTKLELK |  |  |  |  | 0.00253 s⁻¹
murine mAb 2F8 (antibody, V domains shown, Murine antibody from hybridoma) VH: QVQLQQPGSVLVRPGASVKLSCKASGYTFTNSWMNWAKLRPGQGLEWIGGIYPNSGNIEYNEKFKGKATLTVDTSSSTAYMDLTSLTSEDSAVYYCARDSRFSYWGQGTLVTVSA VL: DIVMTQSHKFMSTSVGDRVSITCKASQDVRTAVAWYQQKPGQSPKLLISSTSYRYTGVPDRFTGSGSGTDFTFIISSVQAEDLAVYYCQQHYSTPLTFGAGTKLELK |  |  |  |  | 6.87e-05 s⁻¹
M1 (listed as murine antibody) (antibody, V domains shown) VH: EIQLQQSGPELVMPGASVKVSCTASGYPFTTYNMYWVKQSHGKSLEWIAYIDPYNGGTSYNQKFKGKATLTVDKSSSTAYMHLNSLTSEDSAVYYCARSGFYDGYYAWYFDVWGAGTTVTVSS VL: DVVMTQTPLSLPVSLGDQASISCRSSQSLVHSGGNTYLHWYLQKPGQSPKLLIYKVSNRFSGVPDRFSGSGSGTDFTLKISRVEAEDLGVYFCSQSTHVPLTFGAGTKLELK |  |  |  |  | 3.98e-05 s⁻¹
murine mAb 2A10 (antibody, V domains shown, Murine antibody from hybridoma) VH: EVQLVESGGGFVKPGGSLKLSCAASGFTFSTFGMSWVRQTPDKRLEWVAGISPGGSYTYYPDTVKGRFTISRDNARNTLYLQMSSLRSEDSAMYYCTRGRSVWGTGTTVTVSS VL: DILMTQSPSSMSVSLGDTVSITCHASQDISSNIGWLQQKPGKSFKGLIYHGTTLEDGIPSRFSGSGSGADYSLTISSLESEDFADYYCVQSAQFPWTFGGGTKLEIK |  |  |  |  | 0.000331 s⁻¹
murine mAb 2G6 (antibody, V domains shown, Murine antibody from hybridoma) VH: EVQLVESGGGLVKPGGSLKLSCAASGFTFSRYGMSWVRQTPEKRLEWVAGINGGGSYTYYLDTVKGRFTISRDNSRNTLYLQMSSLRSEDTAMYYCVSQGSNYYFDYWGQGTTLTVSS VL: DIRMTQSPSSMSVSLGDTVSITCHASQGISSNIGWLQQKPGKSFKALIYHGTNLEDGVPSRFSGSGSGADYSLTISSLESEDFADYYCVQYAQFPYTFGGGTKLEIK |  |  |  |  | 8.91e-05 s⁻¹
murine mAb 2F4 (antibody, V domains shown, Murine antibody from hybridoma) VH: EVQLVESGGGLVKPGGSLKLSCAASGLTFSRYAMSWVRQTPEKRLEWVAGISSGGSYTYYSDTVKGRFTISRDNVRNTLYLQMSSLRSEDTAMYYCGREYGRDYWGQGTSVTVSS VL: DILMTQSPSSMSVSLGDTVSITCHASQGINSNIGWLQQKPGKSFKGLIYHGTNLEDGVPSRFSGSGSGTDYSLTISSLESEDFADYYCVQYAQFPRTFGGGTTLEIK |  |  |  |  | 0.00166 s⁻¹
murine mAb 2E4 (antibody, V domains shown, Murine antibody from hybridoma) VH: QVQLQQPGSVLVRPGTSVKLSCKASGYTFTSSWMNWVKQRPGQGLEWIGGIYPNRGTTEYNEKFKGKATLTVDTSSSTAFMDLNRLTSEDSAVYYCARDSRFADWGQGTLVTVSA VL: DIMLTQSHKFMSTSVGDRVSITCKASQDVSAAVAWYQQKPGQSPKLLISSASYRYTGVPDRFTGSGSGTDFTFTISSVQAEDLAVYYCQQHYNTPLTFGAGTKLELK |  |  |  |  | 5.97e-05 s⁻¹
murine mAb 1E4 (antibody, V domains shown, Murine antibody from hybridoma) VH: EVQLVESGGGLVKPGGSLKLSCAASGFTFSRYAMSWVRQTPEKRLEWVAGISSGGSYTYYPDTLKGRFTVSRDNARNTLYLQMSSLRSEDTAKYFCASQGSNHYFDYWGQGTTLTVSS VL: DTLMTQSPSSMSVSLGDTVSITCHASQGIHNNIGWLQQKPGKSFKALIYHGTNLEDGVPSRFSGSGSGADYSLIISSLESEDFADYYCVQYAQFPYTFGGGTKLEIK |  |  |  |  | 0.000293 s⁻¹
